Laboratory results from patent publication US20050288225A1 (YEDA RESEARCH AND DEVELOPMENT, published 2005).

Target: T1, HA-tagged B1 protein (Homo sapiens (Human), UniProt O43353 1-540)
T1 construct: Expressed in transfected 293 cells for co-immunoprecipitation; also called HA-B1
Test: co-immunoprecipitation from transfected 293 cells: anti-FLAG IP, anti-HA western blot
Method: Seven hours after transfection cells were washed and 18 hours later cells were lysed in a buffer containing 50 mM HEPES pH 7.5, 250 mM NaCl, 0.2% NP-40, 5 mM EDTA, 1 mM phenylmethylsulfonyl fluoride, 2.0 μg/ml aprotinin and 20 μg/ml leupeptin (lysis buffer). Immunoprecipitation was performed by incubation (2hours, 4° C.) of 1 ml aliquots of lysate with anti-FLAG epitope antibody (5 μg/aliquot) and with protein G-agarose beads (30 μl/aliquot). Immunoprecipitates were washed three times with lysis buffer and once with PBS, fractionated by 10% SDS-PAGE and transferred to a nitrocellulose membrane (Schleicher & Schuell, Dassel, Germany). Western blot analysis was performed with anti-HA epitope monoclonal antibodies applied at a dilution of 1:1000, and the ECL kit (Amersham, Buckinghamshire, England).

T1 sequence (O43353 whole entry L79F): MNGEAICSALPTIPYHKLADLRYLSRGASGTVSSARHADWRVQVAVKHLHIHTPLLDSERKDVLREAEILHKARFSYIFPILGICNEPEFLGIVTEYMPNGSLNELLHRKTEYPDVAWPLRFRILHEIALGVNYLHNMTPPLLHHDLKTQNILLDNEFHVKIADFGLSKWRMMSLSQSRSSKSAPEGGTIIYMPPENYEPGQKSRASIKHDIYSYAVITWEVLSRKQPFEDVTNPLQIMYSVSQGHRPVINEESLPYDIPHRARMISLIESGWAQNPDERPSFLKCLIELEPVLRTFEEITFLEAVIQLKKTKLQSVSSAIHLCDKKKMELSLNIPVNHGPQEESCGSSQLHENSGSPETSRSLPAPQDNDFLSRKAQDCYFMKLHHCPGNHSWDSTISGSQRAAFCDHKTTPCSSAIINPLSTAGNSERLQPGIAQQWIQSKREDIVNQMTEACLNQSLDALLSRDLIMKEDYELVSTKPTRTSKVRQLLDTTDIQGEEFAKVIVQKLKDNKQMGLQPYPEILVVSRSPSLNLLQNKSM

B1: Flag-tagged TRAF2 (other, UniProt Q12933 1-501, looked up, not shown: small tags and cut ends)
chain: MAAASVTPPGSLELLQPGFSKTLLGTKLEAKYLCSACRNVLRRPFQAQCGHRYCSFCLASILSSGPQNCAACVHEGIYEEGISILESSSAFPDNAARREVESLPAVCPSDGCTWKGTLKEYESCHEGRCPLMLTECPACKGLVRLGEKERHLEHECPERSLSCRHCRAPCCGADVKAHHEVCPKFPLTCDGCGKKKIPREKFQDHVKTCGKCRVPCRFHAIGCLETVEGEKQQEHEVQWLREHLAMLLSSVLEAKPLLGDQSHAGSELLQRCESLEKKTATFENIVCVLNREVERVAMTAEACSRQHRLDQDKIEALSSKVQQLERSIGLKDLAMADLEQKVLEMEASTYDGVFIWKISDFARKRQEAVAGRIPAIFSPAFYTSRYGYKMCLRIYLNGDGTGRGTHLSLFFVVMKGPNDALLRWPFNQKVTLMLLDQNNREHVIDAFRPDVTSSSFQRPVNDMNIASGCPLFCPVSKMEAKNSYVRDDAIFIKAIVDLTGL
notes: Expressed in transfected 293 cells; also called FL-TRAF2
Question: Does B1 bind?
Answer: Result: no binding
